# Assay results: the Immune Epitope Database (IEDB)
# Legend:
# [1] = molecular target: HLA-A*32:01; experiment: IEDB peptide-MHC binding, purified MHC/competitive/radioactivity; filed as Kd, often an IC50 or EC50 that approximates it; ≥ and ≤ were set here for values at or beyond the usual limits of such assays
# [2] = molecular target: HLA-A*30:01; experiment: as above
# [3] = molecular target: HLA-B*40:01; experiment: as above; conditions: source organism: Dengue virus 2 Jamaica/1409/1983
# [4] = molecular target: HLA-B*44:02; experiment: as above; conditions: source organism: Dengue virus 2 Jamaica/1409/1983
# [5] = molecular target: HLA-B*44:03; experiment: as above; conditions: source organism: Dengue virus 2 Jamaica/1409/1983
# [6] = molecular target: HLA-A*02:01; experiment: IEDB peptide-MHC binding, purified MHC/competitive/fluorescence; filed as Kd, often an IC50 or EC50 that approximates it; ≥ and ≤ were set here for values at or beyond the usual limits of such assays
# [7] = molecular target: HLA-A*01:01; experiment: IEDB peptide-MHC binding, purified MHC/competitive/radioactivity; filed as Kd, often an IC50 or EC50 that approximates it; ≥ and ≤ were set here for values at or beyond the usual limits of such assays
# [8] = molecular target: HLA-A*26:01; experiment: as above
# [9] = molecular target: HLA-A*29:02; experiment: as above
# [10] = molecular target: HLA-A*30:02; experiment: as above
# [11] = molecular target: HLA-B*07:02; experiment: as above; conditions: source organism: Dengue virus 1 Brazil/97-11/1997
# [12] = molecular target: HLA-A*01:01; experiment: IEDB peptide-MHC binding, purified MHC/direct/fluorescence; filed as Kd, often an IC50 or EC50 that approximates it; ≥ and ≤ were set here for values at or beyond the usual limits of such assays; conditions: source organism: Mycobacterium tuberculosis variant bovis BCG str. Pasteur 1173P2
# [13] = molecular target: HLA-A*26:01; experiment: as above; conditions: source organism: Mycobacterium tuberculosis
# [14] = molecular target: HLA-A*68:02; experiment: IEDB peptide-MHC binding, purified MHC/competitive/radioactivity; filed as Kd, often an IC50 or EC50 that approximates it; ≥ and ≤ were set here for values at or beyond the usual limits of such assays
# [15] = molecular target: HLA-B*51:01; experiment: as above
# [16] = molecular target: HLA-A*02:02; experiment: as above; conditions: source organism: Trypanosoma cruzi
# [17] = molecular target: HLA-A*02:03; experiment: as above; conditions: source organism: Trypanosoma cruzi
# [18] = molecular target: HLA-A*02:06; experiment: as above
# [19] = molecular target: HLA-B*35:01; experiment: as above
# [20] = molecular target: HLA-A*02:01; experiment: as above
# [21] = molecular target: HLA-B*53:01; experiment: as above; conditions: source organism: Dengue virus 1 Brazil/97-11/1997
# [22] = molecular target: HLA-A*03:01; experiment: as above; conditions: source organism: Dengue virus 2 Jamaica/1409/1983
# [23] = source organism: Dengue virus 2 Jamaica/1409/1983
# [24] = source organism: Dengue virus 3 Martinique/1243/1999
# [25] = source organism: Mammarenavirus guanaritoense
# [26] = source organism: Mammarenavirus brazilense
# [27] = source organism: Trypanosoma cruzi
# [28] = source organism: Dengue virus 4 Dominica/814669/1981
# [29] = source organism: Dengue virus 1 Brazil/97-11/1997
# [30] = source organism: Dengue virus 4 Philippines/H241/1956
# [31] = source organism: Vaccinia virus WR
# [32] = source organism: Mammarenavirus lassaense
# [33] = source organism: Mammarenavirus juninense
sequence,measurement,setting,value
AAAWYLWEVK,Kd,[1]; [23],2.06 µM
AEISGSSPIL,Kd,[2]; [23],16.1 µM
same,Kd,[3],0.00104 µM
same,Kd,[4],0.00616 µM
same,Kd,[5],0.00675 µM
ATFKIQPFL,Kd,[2]; [24],0.361 µM
AVAANIVLTV,Kd,[6]; source organism: Homo sapiens,0.207 µM
AVFQPSTGNY,Kd,[7]; [25],≥ 27.6 µM
same,Kd,[8]; [25],0.776 µM
same,Kd,[9]; [25],0.819 µM
same,Kd,[2]; [25],12.4 µM
same,Kd,[10]; [25],0.0215 µM
same,Kd,[1]; [25],≥ 69.9 µM
CTREEFTRK,Kd,[2]; [23],0.0644 µM
DPRRCLKPV,Kd,[11],0.225 µM
DTRTQTWMSA,Kd,[1]; [24],5.74 µM
DVAAMSGYY,Kd,[12],0.318 µM
same,Kd,[13],0.003 µM
EMFKTKGRY,Kd,[7]; [26],≥ 32 µM
same,Kd,[8]; [26],0.65 µM
same,Kd,[9]; [26],11.5 µM
same,Kd,[2]; [26],8.95 µM
same,Kd,[10]; [26],0.131 µM
same,Kd,[1]; [26],≥ 77.8 µM
EVKKQRAGV,Kd,[8]; [23],9.12 µM
same,Kd,[14]; [23],0.0616 µM
FAAGLLLRKL,Kd,[15]; [23],11.6 µM
FANNKFTLV,Kd,[16],0.0641 µM
same,Kd,[17],0.00136 µM
same,Kd,[18]; [27],0.00305 µM
same,Kd,[14]; [27],0.075 µM
FLEQQNKIL,Kd,[14]; source organism: Homo sapiens,≥ 136 µM
FTILALFLAH,Kd,[8]; [24],≥ 20.9 µM
same,Kd,[19]; [24],≥ 24.9 µM
FTVQADMGCV,Kd,[18]; [28],0.11 µM
same,Kd,[14]; [28],0.00355 µM
same,Kd,[15]; [28],≥ 59.2 µM
FVDYNFSLV,Kd,[16],0.000503 µM
same,Kd,[17],0.00424 µM
same,Kd,[18]; [27],0.000655 µM
same,Kd,[14]; [27],0.0755 µM
GITRPTTLV,Kd,[20]; [27],≥ 92.6 µM
same,Kd,[16],13.7 µM
same,Kd,[17],1.15 µM
same,Kd,[18]; [27],12.2 µM
same,Kd,[14]; [27],11.9 µM
GKTRRYLPAI,Kd,[2]; [29],0.67 µM
GPVLTLWEGN,Kd,[1]; [30],1.55 µM
HPGFTVIAL,Kd,[11],0.00314 µM
same,Kd,[19]; [29],0.00154 µM
same,Kd,[21],0.0294 µM
HVGRPTTVV,Kd,[20]; [27],9.86 µM
same,Kd,[16],1.06 µM
same,Kd,[17],0.452 µM
same,Kd,[18]; [27],0.639 µM
same,Kd,[14]; [27],0.0211 µM
IALSVLAVL,Kd,[20]; source organism: Lassa virus Josiah,1.92 µM
IIFFIVLIL,Kd,[1]; [31],0.0122 µM
IISLWDQSL,Kd,[20]; source organism: HIV-1 M:B_MN,0.279 µM
ILPVIFLSI,Kd,[1]; [31],0.00449 µM
IPNHGVTAT,Kd,[19]; [30],2.28 µM
ISRFANLIK,Kd,[2]; [31],0.0134 µM
ITLFLILCY,Kd,[1]; [31],1.8 µM
ITVYFRRTI,Kd,[1]; [31],0.0259 µM
KLGFEEIKGL,Kd,[6]; source organism: Vaccinia virus Copenhagen,0.0306 µM
KLYTIVSTL,Kd,[1]; [31],0.00712 µM
KQNMLHVII,Kd,[1]; [31],0.00212 µM
KSRLNALGK,Kd,[22],0.0113 µM
same,Kd,[2]; [23],0.00344 µM
KTGECSKCY,Kd,[7]; [32],12.8 µM
same,Kd,[8]; [32],≥ 77.9 µM
same,Kd,[9]; [32],10.2 µM
same,Kd,[2]; [32],18.6 µM
same,Kd,[10]; [32],0.834 µM
same,Kd,[1]; [32],6.79 µM
KVFVPAPFG,Kd,[2]; [31],0.00664 µM
KVLRPTPRG,Kd,[2]; [28],0.3 µM
LAGLFIDAGY,Kd,[7]; [33],1.64 µM
same,Kd,[8]; [33],≥ 43.6 µM
same,Kd,[9]; [33],0.0543 µM
same,Kd,[2]; [33],12.5 µM
same,Kd,[10]; [33],0.171 µM
same,Kd,[1]; [33],14.9 µM
